Results: the supplement of paper PMC10567573

B1: KRT18 (parent)
chain: PQVRDWSHYFKIIEDLRAQIFANT

Variants of: B1
Experiment: protein stability index of a GFP-peptide fusion (GPS, HEK-293T) (PSI 1-6); higher = more stable
Details: c terminus: a fixed tail appended
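Further: lentivirally expressed fusions sorted by FACS into six bins by GFP to DsRed ratio, PSI derived from sequencing read proportions per bin multiplied by bin number.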

Variant	protein stability index
PQVRDWSHYFKIIPDLRAQIFANT	1.67
PQVRDWSHYFKIICDLRAQIFANT	2.33
PQVRDWSHYFKIIYDLRAQIFANT	1.9
PQVRDWSHYFKIIGDLRAQIFANT	2
PQVRDWSHYFKIILDLRAQIFANT	1.39
PQVRDWSHYFKIINDLRAQIFANT	2.03
PQVRDWSHYFKIIWDLRAQIFANT	2.79
PQVRDWSHYFKIIQDLRAQIFANT	2.64
PQVRDWSHYFKIIFDLRAQIFANT	1.59
DQVRDWSHYFKIIEDLRAQIFANT	2.83
AQVRDWSHYFKIIEDLRAQIFANT	1.31
VQVRDWSHYFKIIEDLRAQIFANT	2.2
KQVRDWSHYFKIIEDLRAQIFANT	2.42
QQVRDWSHYFKIIEDLRAQIFANT	2.38
IQVRDWSHYFKIIEDLRAQIFANT	2.24
RQVRDWSHYFKIIEDLRAQIFANT	2.86
PQVRDWSHYFSIIEDLRAQIFANT	2.75
PQVRDWSHYFWIIEDLRAQIFANT	3.08
PQVRDWSHYFHIIEDLRAQIFANT	2.25
PQVRDWSHYFTIIEDLRAQIFANT	1.98
PQVRDWSHYFNIIEDLRAQIFANT	1.49
PQVRDWSHYFGIIEDLRAQIFANT	1.74
PQVRDWSHYFQIIEDLRAQIFANT	2.5
PQVRDWSHYFYIIEDLRAQIFANT	1.35

Variant	protein stability index
PQVRDWSHYFKIIEDCRAQIFANT	1.7
PQVRDWSHYFKIIEDDRAQIFANT	2.22
PQVRDWSHYFKIIEDMRAQIFANT	2.08
PQVRDWSHYFKIIEDRRAQIFANT	2.33
PQVRDWSHYFKIIEDPRAQIFANT	2.38
PQVRDWSHYFKIIEDIRAQIFANT	2.03
PQVIDWSHYFKIIEDLRAQIFANT	2.32
PQVEDWSHYFKIIEDLRAQIFANT	2.43
PQVYDWSHYFKIIEDLRAQIFANT	1.61
PQVFDWSHYFKIIEDLRAQIFANT	1.6
PQVVDWSHYFKIIEDLRAQIFANT	2.09
PQVLDWSHYFKIIEDLRAQIFANT	1.93
PQVRDWQHYFKIIEDLRAQIFANT	3.49
PQVRDWLHYFKIIEDLRAQIFANT	1.52
PQVRDWWHYFKIIEDLRAQIFANT	1.95
PQVRDWFHYFKIIEDLRAQIFANT	1.41
PQVRDWMHYFKIIEDLRAQIFANT	2.18
PQVRDWRHYFKIIEDLRAQIFANT	1.99
PQVRDWHHYFKIIEDLRAQIFANT	2.36
PQVRDWSHYFKIIEDLEAQIFANT	2.61
PQVRDWSHYFKIIEDLIAQIFANT	2.61
PQVRDWSHYFKIIEDLDAQIFANT	2.4
PQVRDWSHYFKIIEDLQAQIFANT	2.19
PQVRDWSHYFKIIEDLHAQIFANT	2.58

Variant	protein stability index
PQVRDWSHYFKIIEDLNAQIFANT	2.64
PQVRDWSHYFKIIEDLTAQIFANT	2.27
PQVRDWSHYFKIIEDLPAQIFANT	2.15
PQVRDWSHYFKIIEDLVAQIFANT	1.89
PQVRDWSHYFKIIEDLFAQIFANT	1.54
PQVRDWSHYFKIIEDLRAQIFANI	2.6
PQVRDWSHYFKIIEDLRAQIFANY	1.72
PQVRDWSHYFKIIEDLRAQIFANQ	2.47
PQVRDWSHYFKIIEDLRAQIFANR	2.23
PQVRDWSHYFKIIEDLRAQIFANF	2.34
PQVRDWSHYFKIIEDLRAQIFANW	2.27
PQVRDWSHYFKIIEDLRAQIFANL	2.31
PQVRDWSHYFKIIEDLRAQIFAAT	1.86
PQVRDWSHYFKIIEDLRAQIFALT	2.53
PQVRDWSHYFKIIEDLRAQIFADT	2.43
PQVRDWSHYFKIIEDLRAQIFAST	2.33
PQVRDWSHYFKIIEDLRAQIFAPT	1.91
PQVRDWSHYFKIIEDLRAQIFAET	2.8
PQVRDWSHYFKIIEDLRAQIFAWT	1.95
PQVRDWSHYFKIIEDLRAQIFAKT	2.06
PQVRDWSHYFKIIEDLRAQIFATT	1.56
PQVRDWSHYVKIIEDLRAQIFANT	1.69
PQVRDWSHYAKIIEDLRAQIFANT	2.29
PQVRDWSHYYKIIEDLRAQIFANT	1.54

Variant	protein stability index
PQVRDWSHYDKIIEDLRAQIFANT	1.9
PQVRDWSHYGKIIEDLRAQIFANT	2.4
PQVRDWSHYSKIIEDLRAQIFANT	2.15
PQVRDWSHYPKIIEDLRAQIFANT	3.18
PQVRDWSHYRKIIEDLRAQIFANT	2.58
PQVRDWSHYNKIIEDLRAQIFANT	1.89
PAVRDWSHYFKIIEDLRAQIFANT	2.59
PMVRDWSHYFKIIEDLRAQIFANT	3.56
PHVRDWSHYFKIIEDLRAQIFANT	2.17
PGVRDWSHYFKIIEDLRAQIFANT	2.29
PSVRDWSHYFKIIEDLRAQIFANT	2.42
PKVRDWSHYFKIIEDLRAQIFANT	2.08
PRVRDWSHYFKIIEDLRAQIFANT	1.77
PDVRDWSHYFKIIEDLRAQIFANT	2.04
PNVRDWSHYFKIIEDLRAQIFANT	2.41
PYVRDWSHYFKIIEDLRAQIFANT	2.34
PQVREWSHYFKIIEDLRAQIFANT	2.8
PQVRYWSHYFKIIEDLRAQIFANT	2.15
PQVRWWSHYFKIIEDLRAQIFANT	1.63
PQVRGWSHYFKIIEDLRAQIFANT	1.99
PQVRHWSHYFKIIEDLRAQIFANT	1.68
PQVRTWSHYFKIIEDLRAQIFANT	2.53
PQVRIWSHYFKIIEDLRAQIFANT	2.46
PQVRVWSHYFKIIEDLRAQIFANT	2.56

Variant	protein stability index
PQVRDWSHYFKIIEDLRAQNFANT	3.05
PQVRDWSHYFKIIEDLRAQDFANT	2.59
PQVRDWSHYFKIIEDLRAQEFANT	2.86
PQVRDWSHYFKIIEDLRAQQFANT	2.09
PQVRDWSHYFKIIEDLRAQRFANT	2.75
PQVRDWSHYFKIIEDLRAQSFANT	2.17
PQVRDWSHYFKIIEDLRAQWFANT	1.62
PQVRDWSHYFKIIEDLRAQGFANT	2.9
PQVRDWSHYFKIIEDLRAQFFANT	2.22
PQVRDWSHYFKIIEDLRAQLFANT	2
PQVRDWSHYFKIIEDLRAQKFANT	2.7
PQVRDWSHYFKIIEDLRCQIFANT	1.94
PQVRDWSHYFKIIEDLREQIFANT	2.7
PQVRDWSHYFKIIEDLRWQIFANT	2.34
PQVRDWSHYFKIIEDLRSQIFANT	2.25
PQVRDWSHYFKIIEDLRNQIFANT	2.8
PQVRDWSHYFKIIEDLRPQIFANT	2.15
PQVRDWSHYFKIIEDLRLQIFANT	2.29
PQVRDWSHYFKIIEDLRVQIFANT	1.97
PQVRDWSHYFKIIEDLRYQIFANT	1.77
PQVRDWSHYFKIIEDLRFQIFANT	2.24
PQVRDWSHYFKIIEDLRIQIFANT	2.13
PQVRDESHYFKIIEDLRAQIFANT	2.97
PQVRDISHYFKIIEDLRAQIFANT	2.48

Variant	protein stability index
PQVRDDSHYFKIIEDLRAQIFANT	2.61
PQVRDMSHYFKIIEDLRAQIFANT	2.15
PQVRDVSHYFKIIEDLRAQIFANT	1.92
PQVRDHSHYFKIIEDLRAQIFANT	1.85
PQVRDWSHYFKIIEGLRAQIFANT	2.16
PQVRDWSHYFKIIERLRAQIFANT	1.89
PQVRDWSHYFKIIEFLRAQIFANT	1.58
PQVRDWSHYFKIIELLRAQIFANT	2.69
PQVRDWSHYFKIIEVLRAQIFANT	2.32
PQVRDWSHYFKIIEALRAQIFANT	2.47
PQVRDWSHYFKIIENLRAQIFANT	2.1
PQVRDWSHNFKIIEDLRAQIFANT	2.71
PQVRDWSHGFKIIEDLRAQIFANT	1.75
PQVRDWSHTFKIIEDLRAQIFANT	1.81
PQVRDWSHLFKIIEDLRAQIFANT	2.17
PQVRDWSHKFKIIEDLRAQIFANT	1.76
PQVRDWSHWFKIIEDLRAQIFANT	2.5
PQVRDWSHDFKIIEDLRAQIFANT	2.95
PQVRDWSHVFKIIEDLRAQIFANT	2.48
PQVRDWSHYFKIIEDLRAQIAANT	2.83
PQVRDWSHYFKIIEDLRAQIHANT	2.4
PQVRDWSHYFKIIEDLRAQIEANT	2.98
PQVRDWSHYFKIIEDLRAQIIANT	1.91
PQVRDWSHYFKIIEDLRAQIMANT	2.16

Variant	protein stability index
PQVRDWSHYFKIIEDLRAQIFSNT	2.17
PQVRDWSHYFKIIEDLRAQIFPNT	2.4
PQVRDWSHYFKIIEDLRAQIFMNT	2.37
PQVRDWSHYFKIIEDLRAQIFINT	2.5
PQVRDWSHYFKIIEDLRAQIFHNT	2
PQVRDWSHYFKIIEDLRAQIFKNT	2.1
PQVRDWSHYFKIIEDLRAQIFLNT	1.45
PQVRDWSHYFKIIEDLRAQIFNNT	2.53
PQVRDWSHYFKIIEDLRAQIFCNT	1.9
PQVRDWSHYFKIIEDLRAQIFTNT	2.14
PQNRDWSHYFKIIEDLRAQIFANT	2.06
PQYRDWSHYFKIIEDLRAQIFANT	2.69
PQHRDWSHYFKIIEDLRAQIFANT	1.94
PQIRDWSHYFKIIEDLRAQIFANT	2.05
PQPRDWSHYFKIIEDLRAQIFANT	2.46
PQWRDWSHYFKIIEDLRAQIFANT	1.7
PQFRDWSHYFKIIEDLRAQIFANT	2.24
PQKRDWSHYFKIIEDLRAQIFANT	1.79
PQSRDWSHYFKIIEDLRAQIFANT	2.44
PQVRDWSHYFKIIEDLRAGIFANT	2.34
PQVRDWSHYFKIIEDLRASIFANT	2.67
PQVRDWSHYFKIIEDLRAAIFANT	2.05
PQVRDWSHYFKIIEDLRACIFANT	1.86
PQVRDWSHYFKIIEDLRAWIFANT	2.39

Variant	protein stability index
PQVRDWSHYFKIIEDLRAIIFANT	1.42
PQVRDWSHYFKIIEDLRAFIFANT	1.7
PQVRDWSHYFKILEDLRAQIFANT	2.27
PQVRDWSHYFKIWEDLRAQIFANT	3.46
PQVRDWSHYFKIREDLRAQIFANT	2.69
PQVRDWSHYFKIGEDLRAQIFANT	2.9
PQVRDWSHYFKIHEDLRAQIFANT	2.16
PQVRDWSHYFKITEDLRAQIFANT	2.54
PQVRDWSHYFKIVEDLRAQIFANT	2.87
PQVRDWSHYFKSIEDLRAQIFANT	2.3
PQVRDWSHYFKHIEDLRAQIFANT	2.36
PQVRDWSHYFKLIEDLRAQIFANT	2.27
PQVRDWSHYFKDIEDLRAQIFANT	3.17
PQVRDWSGYFKIIEDLRAQIFANT	2.58
PQVRDWSVYFKIIEDLRAQIFANT	2.17
PQVRDWSFYFKIIEDLRAQIFANT	1.59
PQVRDWSWYFKIIEDLRAQIFANT	1.34
PQVRDWSEYFKIIEDLRAQIFANT	2.49
PQVRDWSNYFKIIEDLRAQIFANT	2.24
PQVRDWSQYFKIIEDLRAQIFANT	1.83
